Test results as given in US6685932 (EUROPAISCHES LABORATORIUM MOLEKULARBIOLOGIE, dated 2004).
Like-named read-outs stand apart in the source and are kept apart here.

T1: extracellular domain of the IL-4Rα (IL-4 binding protein) (UniProt P24394 26-232, limits assumed, biotinylated at Cys-206)
T1 construct: extracellular domain; Immobilised on the streptavidin-coated matrix of the biosensor through biotin at Cys-206; also called IL4BP; IL-4 specific receptor
T1 sequence (looked up): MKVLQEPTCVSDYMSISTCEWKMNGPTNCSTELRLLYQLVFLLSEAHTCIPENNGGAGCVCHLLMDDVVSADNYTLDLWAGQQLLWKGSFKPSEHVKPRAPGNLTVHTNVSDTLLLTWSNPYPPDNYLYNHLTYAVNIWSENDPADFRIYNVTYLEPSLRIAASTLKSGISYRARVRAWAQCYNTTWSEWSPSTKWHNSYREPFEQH


Legend:
[1] = biological target: T1, extracellular domain of the IL-4Rα …; test: biosensor (BIA2000), IL4BP biotinylated at Cys-206 on a streptavidin matrix, 25 C
[2] = biological target: T1, extracellular domain of the IL-4Rα …; test: as above; remark: listed apart in the source
[3] = biological target: T1, extracellular domain of the IL-4Rα …; test: biosensor (BIA2000), IL4BP immobilised on a streptavidin matrix, room temperature

Row | Binder | Kd [1] [mM] | Kd [2] [mM] | binding result [3]
1 | Ac-RMKQLEDKVERLLSRNYRLENEVARLKKLVG-NH2 (not fully specified, Synthetic peptide derived from the GCN4 leucine zipper, designed to form a non-covalent parallel coiled-coil dimer) [Model 2] | 4.08 | 4.08 | 
2 | Ac-RMKQLEDKVEELLSKNYRLENRVARLEKLVG-NH2 (also: designed to form non-covalent parallel coiled-coil dimer, Synthetic peptide derived from the GCN4 leucine zipper, designed to form a non-covalent parallel coiled-coil dimer) [Model 1] |  |  | no binding
